Results: publication PMC11472053, “Structural basis of DNA recognition by BEN domain proteins reveals a role for oligomerization in unmethylated DNA selection by BANP” (Nucleic Acids Research, 2024)

Experiments:
Experiment in all cases: ITC; ITC: 20 mM Tris pH 7.5, 200 mM NaCl, 2 mM beta-mercaptoethanol, 20 C; EMSA: 20 mM Tris pH 7.0, 200 mM NaCl, 2 mM DTT, 4 C, 1.2% agarose in TAE
BANP full-length WT = target: T1, BANP full-length WT (human, UniProt Q8N9N5 1-519); settings: protein: recombinant; tags: His-SUMO or His-MBP, cleaved; chain copies: 4; blunt, self-complementary
T1 sequence: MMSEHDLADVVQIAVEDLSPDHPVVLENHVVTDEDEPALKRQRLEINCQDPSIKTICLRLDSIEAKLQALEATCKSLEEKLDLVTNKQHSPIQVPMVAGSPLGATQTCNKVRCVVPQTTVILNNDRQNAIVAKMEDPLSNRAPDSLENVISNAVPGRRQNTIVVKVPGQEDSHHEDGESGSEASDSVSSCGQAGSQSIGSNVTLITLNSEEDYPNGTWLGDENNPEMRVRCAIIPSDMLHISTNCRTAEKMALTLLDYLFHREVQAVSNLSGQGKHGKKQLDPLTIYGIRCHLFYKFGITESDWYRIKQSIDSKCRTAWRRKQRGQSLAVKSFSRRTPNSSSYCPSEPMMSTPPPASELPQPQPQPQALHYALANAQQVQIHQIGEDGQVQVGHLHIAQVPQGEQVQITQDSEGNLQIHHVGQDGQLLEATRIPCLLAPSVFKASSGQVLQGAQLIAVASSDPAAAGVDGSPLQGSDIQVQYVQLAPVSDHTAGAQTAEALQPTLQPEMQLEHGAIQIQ

BANP ΔCC = target: T2, BANP ΔCC (human, UniProt Q8N9N5 90-519); settings: protein: recombinant; tags: His-SUMO or His-MBP, cleaved; blunt, self-complementary
T2 sequence: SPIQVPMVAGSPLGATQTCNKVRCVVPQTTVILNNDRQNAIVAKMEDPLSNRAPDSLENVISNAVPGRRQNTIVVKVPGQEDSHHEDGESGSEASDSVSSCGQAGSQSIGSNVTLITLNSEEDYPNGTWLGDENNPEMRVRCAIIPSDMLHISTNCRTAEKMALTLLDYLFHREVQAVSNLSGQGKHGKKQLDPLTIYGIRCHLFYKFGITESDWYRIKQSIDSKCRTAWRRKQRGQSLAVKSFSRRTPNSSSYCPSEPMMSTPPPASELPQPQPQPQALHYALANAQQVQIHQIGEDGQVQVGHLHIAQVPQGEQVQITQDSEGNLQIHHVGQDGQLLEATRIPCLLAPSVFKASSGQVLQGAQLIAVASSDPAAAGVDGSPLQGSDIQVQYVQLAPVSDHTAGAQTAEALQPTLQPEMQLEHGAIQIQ

BANP BEN K278A = target: T3, BANP BEN K278A (human, UniProt Q8N9N5 205-325, K278A); settings: protein: recombinant; tags: His-SUMO or His-MBP, cleaved; chain copies: 2; blunt, self-complementary
T3 sequence: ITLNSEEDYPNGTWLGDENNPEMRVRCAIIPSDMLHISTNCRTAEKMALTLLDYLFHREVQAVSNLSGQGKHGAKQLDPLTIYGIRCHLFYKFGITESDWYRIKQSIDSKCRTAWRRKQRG

B1: 12-CGCG (dsDNA)
DNA 1: ATCTCGCGAGAT
DNA 2: ATCTCGCGAGAT
- Kd (BANP full-length WT): 3.4 ± 0.6 µM
- Kd (BANP ΔCC): 3.4 ± 0.5 µM
- Kd (BANP BEN K278A): 35.6 ± 4.1 µM
